Patent publication US20230038638A1, “COMPLEMENT FACTOR I-RELATED COMPOSITIONS AND METHODS” (published 2023)
Each block holds one substance with its values, some of them ahead of it.

Key:
human C4b (human) = target: T1, human C4b (human) (UniProt P0C0L5)
T1 sequence: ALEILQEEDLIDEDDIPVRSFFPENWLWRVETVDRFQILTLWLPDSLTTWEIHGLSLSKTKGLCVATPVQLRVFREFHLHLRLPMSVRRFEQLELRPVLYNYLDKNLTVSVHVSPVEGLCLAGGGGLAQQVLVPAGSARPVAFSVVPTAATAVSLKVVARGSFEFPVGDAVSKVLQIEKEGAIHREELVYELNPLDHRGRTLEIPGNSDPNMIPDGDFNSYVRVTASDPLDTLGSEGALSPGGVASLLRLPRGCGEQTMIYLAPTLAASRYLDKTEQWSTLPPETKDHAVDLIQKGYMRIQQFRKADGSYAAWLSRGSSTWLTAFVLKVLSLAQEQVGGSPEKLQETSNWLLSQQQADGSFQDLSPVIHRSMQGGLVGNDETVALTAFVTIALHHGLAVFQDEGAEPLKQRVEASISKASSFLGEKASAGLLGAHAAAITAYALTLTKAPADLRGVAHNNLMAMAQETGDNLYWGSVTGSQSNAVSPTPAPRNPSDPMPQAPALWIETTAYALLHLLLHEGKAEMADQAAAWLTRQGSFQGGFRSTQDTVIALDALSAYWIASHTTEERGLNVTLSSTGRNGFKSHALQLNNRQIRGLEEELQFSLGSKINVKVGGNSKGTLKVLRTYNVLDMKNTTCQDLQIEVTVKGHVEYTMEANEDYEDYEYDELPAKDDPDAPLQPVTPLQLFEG

[1] = target: soluble human C3b (human) (UniProt P01024)

Substance: CFI-HSA variant K504G (enzyme)
C4b Screen Ref Fold (fold vs CFI-HSA wild type) (human C4b (human)): 0.15
iC3b Screen Ref Fold (fold vs CFI-HSA wild type) [1]: 0.17

Substance: CFI-HSA variant K504P (enzyme)
C4b Screen Ref Fold (fold vs CFI-HSA wild type) (human C4b (human)): -0.02
iC3b Screen Ref Fold (fold vs CFI-HSA wild type) [1]: 0.01

Substance: CFI-HSA variant N52Q; N85Q; N159Q (enzyme)
C4b Screen Ref Fold (fold vs CFI-HSA wild type) (human C4b (human)): 0.24
iC3b Screen Ref Fold (fold vs CFI-HSA wild type) [1]: 1.93

Substance: CFI-HSA variant N85Q (enzyme)
C4b Screen Ref Fold (fold vs CFI-HSA wild type) (human C4b (human)): 0.66
iC3b Screen Ref Fold (fold vs CFI-HSA wild type) [1]: 2.47

Substance: CFI-HSA variant N159Q (enzyme)
C4b Screen Ref Fold (fold vs CFI-HSA wild type) (human C4b (human)): 0.75
iC3b Screen Ref Fold (fold vs CFI-HSA wild type) [1]: 2.21

Substance: CFI-HSA variant N402E (enzyme)
C4b Screen Ref Fold (fold vs CFI-HSA wild type) (human C4b (human)): 1.64
iC3b Screen Ref Fold (fold vs CFI-HSA wild type) [1]: 0.75

Substance: CFI-HSA variant N531G; P535A; GGSSGG (SEQ ID NO: 6); CR1(ccp15-17) (from UniProt P17927) (enzyme)
C4b Screen Ref Fold (fold of CFI-HSA wild type) (human C4b (human)): 3.53
iC3b Screen Ref Fold (fold of CFI-HSA wild type) [1]: 0.14

Substance: CFI-HSA variant N531G; P535G; WT; GGSSGG (SEQ ID NO: 6); CR1(ccp15-17) (from UniProt P17927) (enzyme)
C4b Screen Ref Fold (fold of CFI-HSA wild type) (human C4b (human)): 3.06
iC3b Screen Ref Fold (fold of CFI-HSA wild type) [1]: 0.06

Substance: CFI-HSA variant P535G; P558S (enzyme)
C4b Screen Ref Fold (fold of CFI-HSA wild type) (human C4b (human)): 0.2
iC3b Screen Ref Fold (fold of CFI-HSA wild type) [1]: 0.25

Substance: CFI-HSA variant P535K (enzyme)
C4b Screen Ref Fold (fold vs CFI-HSA wild type) (human C4b (human)): 1.02
iC3b Screen Ref Fold (fold vs CFI-HSA wild type) [1]: 1.61

Substance: CFI-HSA variant R462D (enzyme)
C4b Screen Ref Fold (fold vs CFI-HSA wild type) (human C4b (human)): -0.05
iC3b Screen Ref Fold (fold vs CFI-HSA wild type) [1]: 0

Substance: CFI-HSA variant R462K (enzyme)
C4b Screen Ref Fold (fold vs CFI-HSA wild type) (human C4b (human)): 0.27
iC3b Screen Ref Fold (fold vs CFI-HSA wild type) [1]: 0.24

Substance: CFI-HSA variant S507A (enzyme)
C4b Screen Ref Fold (fold vs CFI-HSA wild type) (human C4b (human)): 0.13
iC3b Screen Ref Fold (fold vs CFI-HSA wild type) [1]: 0.04

Substance: CFI-HSA variant S552G (enzyme)
C4b Screen Ref Fold (fold of CFI-HSA wild type) (human C4b (human)): 1.08
iC3b Screen Ref Fold (fold of CFI-HSA wild type) [1]: 0.58

Results, then the substance that gave them:

C4b Screen Ref Fold (fold vs CFI-HSA wild type) (human C4b (human)): 1.85
iC3b Screen Ref Fold (fold vs CFI-HSA wild type) [1]: 0.49
Substance: CFI-HSA variant M220A-K221Q (enzyme)

C4b Screen Ref Fold (fold of CFI-HSA wild type) (human C4b (human)): 2.85
iC3b Screen Ref Fold (fold of CFI-HSA wild type) [1]: 1.96
Substance: CFI-HSA variant N531G; P535G; N422K (enzyme)

C4b Screen Ref Fold (fold of CFI-HSA wild type) (human C4b (human)): 5.3
iC3b Screen Ref Fold (fold of CFI-HSA wild type) [1]: 0.05
Substance: CFI-HSA variant N531G; WT; GGSSGG (SEQ ID NO: 6); CR1(ccp15-17) (from UniProt P17927) (enzyme)

C4b Screen Ref Fold (fold vs CFI-HSA wild type) (human C4b (human)): 0.3
iC3b Screen Ref Fold (fold vs CFI-HSA wild type) [1]: 0.19
Substance: CFI-HSA variant P535G (enzyme)

C4b Screen Ref Fold (fold of CFI-HSA wild type) (human C4b (human)): 0.35
iC3b Screen Ref Fold (fold of CFI-HSA wild type) [1]: 0.24
Substance: CFI-HSA variant P535G; K534Q (enzyme)

C4b Screen Ref Fold (fold of CFI-HSA wild type) (human C4b (human)): 0.09
iC3b Screen Ref Fold (fold of CFI-HSA wild type) [1]: 0.52
Substance: CFI-HSA variant P535G; N422K (enzyme)

C4b Screen Ref Fold (fold of CFI-HSA wild type) (human C4b (human)): 2.73
iC3b Screen Ref Fold (fold of CFI-HSA wild type) [1]: 0
Substance: CFI-HSA variant P535G; WT; GGSSGG (SEQ ID NO: 6); CR1(ccp15-17) (from UniProt P17927) (enzyme)

C4b Screen Ref Fold (fold of CFI-HSA wild type) (human C4b (human)): 0.9
iC3b Screen Ref Fold (fold of CFI-HSA wild type) [1]: 0.54
Substance: CFI-HSA variant P558S; F559L (enzyme)

C4b Screen Ref Fold (fold vs CFI-HSA wild type) (human C4b (human)): 1.67
iC3b Screen Ref Fold (fold vs CFI-HSA wild type) [1]: 0.67
Substance: CFI-HSA variant R327P (enzyme)

C4b Screen Ref Fold (fold vs CFI-HSA wild type) (human C4b (human)): 0.31
iC3b Screen Ref Fold (fold vs CFI-HSA wild type) [1]: 0.11
Substance: CFI-HSA variant R462A (enzyme)

C4b Screen Ref Fold (fold vs CFI-HSA wild type) (human C4b (human)): 0.14
iC3b Screen Ref Fold (fold vs CFI-HSA wild type) [1]: 1.01
Substance: CFI-HSA variant S250A; D425R (enzyme)

C4b Screen Ref Fold (fold of CFI-HSA wild type) (human C4b (human)): 0.12
iC3b Screen Ref Fold (fold of CFI-HSA wild type) [1]: 0.02
Substance: CFI-HSA variant S507A; GGSSGG (SEQ ID NO: 6); CR1(ccp1-3) (from UniProt P17927) (enzyme)

C4b Screen Ref Fold (fold of CFI-HSA wild type) (human C4b (human)): -0.01
iC3b Screen Ref Fold (fold of CFI-HSA wild type) [1]: -0.01
Substance: CFI-HSA variant S507A; GGSSGG (SEQ ID NO: 6); CR1(ccp15-17) (from UniProt P17927) (enzyme)

C4b Screen Ref Fold (fold of CFI-HSA wild type) (human C4b (human)): 1.41
iC3b Screen Ref Fold (fold of CFI-HSA wild type) [1]: 0.79
Substance: CFI-HSA variant S552G; F559L (enzyme)
